Earlier results on one substance are cited in publication PMC8100458.

By Ki is commonly meant a measure of affinity in units of concentration, obtained from inhibition or displacement. Broadly, the Kd is the constant that tells how readily two partners part at equilibrium.

Data set [1] addresses Asef peptide 181-192 (Homo sapiens). Nature of the data set: FP competition.
The target in data set [2] is Asef peptide 187-192 (Homo sapiens). In words: FP competition.
In data set [3] the target is Asef peptide 183-190 (Homo sapiens). Nature of the data set: FP competition.
The target in data set [4] is Asef peptide 179-193 (Homo sapiens). In words: FP competition.
A further data set concerns the target Asef (Homo sapiens) (UniProt Q9NR80). In words: ITC. Background: In ITC the heat of successive injections is recorded.
Sequence of UniProt Q9NR80 (Q9NR80 whole entry): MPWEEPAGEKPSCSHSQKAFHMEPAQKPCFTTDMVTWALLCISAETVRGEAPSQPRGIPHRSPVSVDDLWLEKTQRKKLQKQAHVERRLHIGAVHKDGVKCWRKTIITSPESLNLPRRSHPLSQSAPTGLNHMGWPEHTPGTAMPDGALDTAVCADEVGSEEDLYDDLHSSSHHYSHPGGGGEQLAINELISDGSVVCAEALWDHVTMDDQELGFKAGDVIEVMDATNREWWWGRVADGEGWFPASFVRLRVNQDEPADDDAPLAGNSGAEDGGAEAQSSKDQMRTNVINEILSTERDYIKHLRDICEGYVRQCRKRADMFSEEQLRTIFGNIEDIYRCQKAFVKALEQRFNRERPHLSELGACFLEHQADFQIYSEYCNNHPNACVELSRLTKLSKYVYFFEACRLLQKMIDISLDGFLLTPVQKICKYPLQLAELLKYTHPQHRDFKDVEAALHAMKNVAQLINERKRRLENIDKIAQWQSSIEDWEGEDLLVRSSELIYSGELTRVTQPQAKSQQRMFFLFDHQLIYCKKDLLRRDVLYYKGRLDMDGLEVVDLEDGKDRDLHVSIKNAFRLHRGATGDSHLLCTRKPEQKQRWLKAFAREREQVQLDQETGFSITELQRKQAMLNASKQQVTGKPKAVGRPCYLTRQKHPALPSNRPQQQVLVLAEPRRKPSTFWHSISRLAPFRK

APC (from UniProt P25054): the Ki is 49.1 µM in data set [1], greater than 300 µM in data set [2], greater than 300 µM in data set [3] and 17.1 µM in data set [4]. In addition, the Kd with Asef (Homo sapiens) is 0.0178 µM.
